Here are results for four substances from patent publication US20110065123A1.

In this experiment the target is Rac1 (non-glucosylated) of mouse intestinal epithelial CT26 cells (mouse) (UniProt P63001). Nature of the experiment: cell-based or functional assay.
Consider “full-length recombinant Clostridium difficile toxin B (rTcdB), His-tagged, expressed in Bacillus megaterium (from UniProt P18177 2-2366) (enzyme)”, for which the glucosylation of Rac1 in CT26 cells, 5 h (Western blot with anti-Rac1 clone 102): complete lay within 0.4 to 2 ng/mL.

“full-length recombinant Clostridium difficile toxin A (rTcdA), His-tagged, expressed in Bacillus megaterium (from UniProt P16154 1-2710) (enzyme)” showed a glucosylation of Rac1 in CT26 cells, 5 h (Western blot with anti-Rac1 clone 102): complete of 40 ng/mL.

Take “native TcdA (nTcdA) purified from culture supernatant of C. difficile strain VPI 10463 (from UniProt P16154 1-2710) (enzyme)”: the glucosylation of Rac1 in CT26 cells, 5 h (Western blot with anti-Rac1 clone 102): complete is 40 ng/mL.

For the substance “native TcdB (nTcdB) purified from C. difficile strain VPI 10463 (from UniProt P18177 2-2366) (enzyme)”, the glucosylation of Rac1 in CT26 cells, 5 h (Western blot with anti-Rac1 clone 102): complete lay within 0.4 to 2 ng/mL.
